Experimental data as given in patent publication US20190010196A1 (GOVERNING COUNCIL OF THE UNIVERSITY OF TORONTO, published 2019).
Square brackets hold non-standard residues; d marks the D form. Ends that are not written are not given here. * marks the point of attachment. Biotin = O=C1N[C@H]2[C@H](CS[C@H]2CCCCC(=O)*)N1; Lys(Me2) = CN(C)CCCC[C@H](N)C(=O)O

Target: T1, MBP-53BP1-Tudor protein (residues 1484-1603) (UniProt Q12888 1484-1603)
T1 construct: range 1484-1603; also called MBP-Tudor fusion of 53BP1; not shown: MBP fusion partner
T1 sequence (Q12888 1484-1603): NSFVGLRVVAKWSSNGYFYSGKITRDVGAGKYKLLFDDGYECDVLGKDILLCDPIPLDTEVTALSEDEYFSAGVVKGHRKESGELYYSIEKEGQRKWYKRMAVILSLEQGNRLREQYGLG
Experiment: pulldown competition on MBP-53BP1-Tudor; competitor GST-UbvG08; immunoblot

B1: biotin-labeled peptide derived from histone H4K20me2 (peptide)
peptide: {Biotin-Mini‑PEG}-YGKGGAKRHR[Lys(Me2)]VLRD
notes: Synthetic peptide (BioBasic Canada Inc.); also called H4K20me2 peptide
With B1 the IC50 was 100 to 300 µM.
